Experimental findings from publication PMC5560056 (Molecular cell, 2016) are described below.

Test [1] deals with T1, recombinant human Pds5B_(1–1120) (human, UniProt Q9NTI5 1-1120).
T1 sequence (looked up): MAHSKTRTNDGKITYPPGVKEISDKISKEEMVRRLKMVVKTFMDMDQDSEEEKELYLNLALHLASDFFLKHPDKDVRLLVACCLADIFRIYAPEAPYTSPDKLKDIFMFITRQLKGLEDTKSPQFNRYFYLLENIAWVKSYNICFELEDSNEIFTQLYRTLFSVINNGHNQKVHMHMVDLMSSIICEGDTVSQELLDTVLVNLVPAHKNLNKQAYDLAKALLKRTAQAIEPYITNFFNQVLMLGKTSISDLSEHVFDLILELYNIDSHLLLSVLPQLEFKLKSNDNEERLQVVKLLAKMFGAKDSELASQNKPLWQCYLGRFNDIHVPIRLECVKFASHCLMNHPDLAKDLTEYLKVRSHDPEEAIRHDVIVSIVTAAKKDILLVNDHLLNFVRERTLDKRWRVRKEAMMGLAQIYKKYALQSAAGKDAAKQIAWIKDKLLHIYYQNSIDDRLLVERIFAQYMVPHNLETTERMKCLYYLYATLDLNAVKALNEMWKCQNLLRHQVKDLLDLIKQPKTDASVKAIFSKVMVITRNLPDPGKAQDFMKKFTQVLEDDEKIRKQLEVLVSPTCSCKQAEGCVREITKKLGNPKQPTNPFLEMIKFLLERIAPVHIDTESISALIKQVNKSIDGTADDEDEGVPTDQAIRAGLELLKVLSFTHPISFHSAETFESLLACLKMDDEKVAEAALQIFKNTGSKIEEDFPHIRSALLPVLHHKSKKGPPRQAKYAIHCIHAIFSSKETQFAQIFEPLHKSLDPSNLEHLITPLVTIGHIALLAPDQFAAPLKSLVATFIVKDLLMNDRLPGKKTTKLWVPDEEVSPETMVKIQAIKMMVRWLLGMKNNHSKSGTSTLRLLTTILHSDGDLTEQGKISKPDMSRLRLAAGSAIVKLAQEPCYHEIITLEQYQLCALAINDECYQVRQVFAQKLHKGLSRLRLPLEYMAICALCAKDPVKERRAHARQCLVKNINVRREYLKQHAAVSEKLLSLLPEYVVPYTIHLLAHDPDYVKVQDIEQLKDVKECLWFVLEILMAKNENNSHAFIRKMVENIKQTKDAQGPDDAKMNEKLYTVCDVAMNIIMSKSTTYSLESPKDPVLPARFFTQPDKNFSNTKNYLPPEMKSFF
Description: pull-down.

Test [2] has as its target T2, recombinant human Pds5B_(21–1120) (human, UniProt Q9NTI5 21-1120).
T2 sequence (looked up): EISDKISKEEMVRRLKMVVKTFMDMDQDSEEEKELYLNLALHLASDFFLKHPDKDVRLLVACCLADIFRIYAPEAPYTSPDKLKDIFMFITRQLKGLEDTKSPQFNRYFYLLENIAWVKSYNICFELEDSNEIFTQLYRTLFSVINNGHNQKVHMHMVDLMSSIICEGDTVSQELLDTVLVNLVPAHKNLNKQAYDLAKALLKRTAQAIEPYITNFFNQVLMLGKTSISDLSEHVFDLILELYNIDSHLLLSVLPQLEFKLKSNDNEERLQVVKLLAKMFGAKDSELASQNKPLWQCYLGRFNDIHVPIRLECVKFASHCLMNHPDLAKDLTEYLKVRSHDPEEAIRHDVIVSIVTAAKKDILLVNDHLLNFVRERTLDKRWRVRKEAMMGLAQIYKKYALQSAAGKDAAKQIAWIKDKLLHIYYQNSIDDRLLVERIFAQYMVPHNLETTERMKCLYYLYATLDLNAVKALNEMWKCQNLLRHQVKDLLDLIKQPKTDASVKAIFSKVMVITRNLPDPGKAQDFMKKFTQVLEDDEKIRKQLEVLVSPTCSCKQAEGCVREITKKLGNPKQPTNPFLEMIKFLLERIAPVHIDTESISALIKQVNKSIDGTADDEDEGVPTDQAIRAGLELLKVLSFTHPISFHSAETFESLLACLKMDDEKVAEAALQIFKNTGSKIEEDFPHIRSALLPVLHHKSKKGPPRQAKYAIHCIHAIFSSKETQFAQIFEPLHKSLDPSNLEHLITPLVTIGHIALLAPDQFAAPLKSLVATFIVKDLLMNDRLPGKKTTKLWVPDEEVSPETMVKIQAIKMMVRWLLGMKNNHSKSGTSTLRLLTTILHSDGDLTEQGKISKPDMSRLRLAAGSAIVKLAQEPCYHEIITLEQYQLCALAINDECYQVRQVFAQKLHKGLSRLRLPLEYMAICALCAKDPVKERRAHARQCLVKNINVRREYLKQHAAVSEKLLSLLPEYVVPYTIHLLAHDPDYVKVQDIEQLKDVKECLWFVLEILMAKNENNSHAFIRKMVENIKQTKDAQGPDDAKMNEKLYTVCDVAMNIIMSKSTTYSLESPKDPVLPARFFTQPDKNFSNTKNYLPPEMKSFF
The test is described as follows: ITC.

Test [3] deals with T3, recombinant human Pds5B_(21–1120) Y445A/N447A (human, UniProt Q9NTI5 21-1120, Y445A | N447A).
T3 sequence (looked up): T2 sequence (looked up) with Y425A, N427A
Description: pull-down.

Test [4] concerns the target T4, selenomethionine-containing Pds5B_(21–1120) (human, UniProt Q9NTI5 21-1120, selenomethionine-containing).
T4 sequence (looked up): T2 sequence (looked up)
Description: crystal structure.

Test [5] concerns the target T1, recombinant human Pds5B_(1–1120). Description: pull-down. This is another data set of the same source.

Positions count from the first letter of the chain named. Read-outs that look alike come from different tables or passages of the source.

B1: Sororin residues 131–171 (domain or fragment, human, UniProt Q96FF9 131-171, looked up)
chain: LDARDLEMSKKVRRSYSRLETLGSASTSTPGRRSCFGFEGL
Consider B1, for which the binding result in test [1] is given as “binds”.

B2: recombinant purified Scc1_(76–150) (domain or fragment, human, UniProt O60216 76-150, looked up)
chain: ADCNEAFIKIKMAFRPGVVDLPEENREAAYNAITLPEEFHDFDQPLPDLDDIDVAQQFSLNQSRVEEITMREEVG
Regarding B2, the Kd in test [2] stood at 4.3 nM.

B3: GST-Scc1_(76–150) (domain or fragment, human, UniProt O60216 76-150, looked up)
chain: B2 chain
On to B3, for which, in test [3], the binding result is given as “binds”.

B4: synthetic Wapl_(1–33) peptide (peptide, UniProt Q7Z5K2 1-33, looked up)
peptide: MTSRFGKTYSRKGGNGSSKFDEVFSNKRTTLST
Turning to B4, in test [4], the binding result is “binds”.

B5: synthetic Sororin peptide (residues 132–171) (peptide, UniProt Q96FF9 132-171, looked up)
peptide: DARDLEMSKKVRRSYSRLETLGSASTSTPGRRSCFGFEGL
For B5, in test [5], the binding result was “binds”.

What is called Kd is a measure of binding affinity in units of concentration.
